Residue numbers refer to the chain shown, from its start. Names and notes keep the numbering of the source. Like-named read-outs stand apart in the source and are kept apart here.
Legend:
GFP protein [1] = target: T1, GFP protein (Aequorea victoria (Water jellyfish) …, UniProt P42212 1-238 = GFP); test: BLI
T1 construct: Purified GFP used as BLI analyte, in crystals and in NANEX; also called Green fluorescent protein
Protocol: (§1) Streptavidin-coated Octet® biosensors were used to capture biotinylated Nanobodies (1 μg/mL). Binding and dissociation isotherms at several GFP concentrations (1 nM to 5 μM range) were analyzed on an OctetRed (molecular devices). All assays were performed in Hepes 25 mM pH7.5, NaCl 150 mM supplemented with BSA 0.1% and Tween²⁰ 0.005% at room temperature.

GFP protein [2] = target: T1, GFP protein; test: comparison of affinities told with the NANEX result
GFP protein [3] = target: T1, GFP protein; test: BLI (OctetRed), biotinylated Nb on streptavidin sensor, GFP as analyte
Protocol: as §1

[4] = target: T2, recombinant human coagulation factor IXa (human, UniProt P00740 134-191; P00740 227-461); test: tandem NANEX: displacement of factor IXa from immobilised CA10502 by 1 mL of 2.5 mg/mL (24 µM) MegaBody CA14208; A280/A650 and SDS-PAGE
T2 construct: range 134-191;range 227-461; Fluorescently labelled with Dylight-647 for the NANEX runs; also called FIXa
T2 sequence (P00740 134-191 limits assumed, form in doubt, chain 1 of 2): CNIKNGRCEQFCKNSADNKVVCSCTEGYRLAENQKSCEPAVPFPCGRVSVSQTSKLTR
T2 sequence (P00740 227-461 limits assumed, form in doubt, chain 2 of 2): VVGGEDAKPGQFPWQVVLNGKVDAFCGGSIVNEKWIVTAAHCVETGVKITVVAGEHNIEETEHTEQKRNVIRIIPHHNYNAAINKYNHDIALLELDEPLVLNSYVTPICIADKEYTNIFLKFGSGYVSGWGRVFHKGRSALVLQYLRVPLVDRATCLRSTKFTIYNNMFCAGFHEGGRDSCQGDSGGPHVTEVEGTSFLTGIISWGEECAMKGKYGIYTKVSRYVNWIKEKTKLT

[5] = target: T2, recombinant human coagulation factor IXa; test: BLI
[6] = target: T3, SMT3 (YDR510W), ubiquitin-like protein SMT3 (yeast); test: BLI
T3 construct: also called yeast SUMO protein
T3 chain: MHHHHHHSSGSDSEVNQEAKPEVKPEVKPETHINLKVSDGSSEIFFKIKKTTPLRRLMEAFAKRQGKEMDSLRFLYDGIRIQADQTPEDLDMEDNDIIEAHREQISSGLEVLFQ
Protocol: (§2) Streptavidin-coated Octet® biosensors were used to capture biotinylated Nanobodies (1 μg/mL). Binding and dissociation isotherms at several SMT3 concentrations (10 nM to 500 nM range) were analyzed on an OctetRed (molecular devices). All assays were performed in Hepes 25 mM pH7.5, NaCl 150 mM supplemented with BSA 0.1% and Tween²⁰ 0.005% at room temperature.

[7] = target: T3, SMT3 (YDR510W), ubiquitin-like protein …; test: BLI (OctetRed), biotinylated Nb on streptavidin sensor, SMT3 10-500 nM
Protocol: as §2

mCherry [8] = test: BLI
Protocol: (§3) Streptavidin-coated Octet® biosensors were used to capture biotinylated Nanobodies (1 μg/mL). […] All assays were performed in Hepes 25 mM pH7.5, NaCl 150 mM supplemented with BSA 0.1% and Tween²⁰ 0.005% at room temperature.

mCherry [9] = test: BLI (OctetRed), biotinylated Nb on streptavidin sensor, mCherry 8.23-222 nM
Protocol: as §3

[10] = target: T4, FmIH_lectin_mCherry_his (CA17337); test: NANEX column: lysate with FmlH_lectin_mCherry_his on immobilised CA16964; A280 and SDS-PAGE [D00043 FIG. 39B]
T4 construct: also called mCherry-fusion protein

[11] = target: T5, GST (Glutathione S-transferase) (Schistosoma japonicum (Blood fluke), UniProt P08515 1-218 = GST); test: BLI
Protocol: as §3

[12] = target: T5, GST (Glutathione S-transferase); test: BLI (OctetRed), biotinylated Nb on streptavidin sensor, GST 63-1667 nM
Protocol: as §3

GFP protein [13] = target: T1, GFP protein; test: BLI; remark: listed apart in the source
Protocol: (§4) Streptavidin-coated Octet® biosensors were used to capture biotinylated Nanobodies (1 μg/mL). Binding and dissociation isotherms at several GFP concentrations (8 nM to 500 nM range) were analyzed on an OctetRed (molecular devices). All assays were performed in Hepes 25 mM pH7.5, NaCl 150 mM supplemented with BSA 0.1% and Tween²⁰ 0.005% at room temperature.

GFP protein [14] = target: T1, GFP protein; test: BLI (OctetRed), biotinylated Nb on streptavidin sensor, GFP 8-500 nM
Protocol: as §4

mCherry [15] = test: BLI; remark: listed apart in the source
Protocol: as §3

mCherry [16] = test: BLI (OctetRed), biotinylated Nb on streptavidin sensor, mCherry 8.23-222 nM; remark: listed apart in the source
Protocol: as §3

[17] = target: T4, FmIH_lectin_mCherry_his (CA17337); test: displacement of FmlH_lectin_mCherry_his from immobilised CA16964 (NANEX column) by 1 mg CA17302; A280 and SDS-PAGE [D00043 FIG. 39B]
[18] = target: T4, FmIH_lectin_mCherry_his (CA17337); test: NANEX column: lysate with FmlH_lectin_mCherry_his on immobilised CA17341; A280/A585 and SDS-PAGE [D00045 FIG. 41B]

B1: CA15818 GFP-NbF103A (C-term. 6xHis + EPEA) (VHH)
VHH: QVQLVESGGGLVQAGGSLRLSCAASGRTFSTAAMGWFRQAPGKERDFVAGIYWTVGSTYYADSAKGRFTISRDNAKNTVYLQMDSLKPEDTAVYYCAARRRGATLAPTRANEYDYWGQGTQVTVSS
modifications: biotinylated for BLI
notes: F103A mutant of CA12760; also called Nb CA15818
- Half-time ratio (relative to the wt Nb CA12760) (GFP protein [1]): 9 fold
- KD ratio (relative to the wt Nb CA12760) (GFP protein [1]): 30 fold
- affinity, fold higher than the trapper CA15816 (GFP protein [2]): 2 fold
- Kd (GFP protein [3]): 1.5 nM
- koff (GFP protein [3]): 0.00029 s⁻¹

B2: CA15861 GFP-NbT54A/V55A/F103A (C-term. 6xHis + EPEA) (VHH)
VHH: B1 VHH with T54A, V55A
modifications: biotinylated for BLI
notes: T54A/V55A/F103A mutant of CA12760; also called Nb CA15861
- Half-time ratio (relative to the wt Nb CA12760) (GFP protein [1]): 1400 fold
- KD ratio (relative to the wt Nb CA12760) (GFP protein [1]): 2000 fold
- affinity, fold lower than the trapper CA15816 (GFP protein [2]): ~100 fold
- Kd (GFP protein [3]): 111 nM
- koff (GFP protein [3]): 0.0458 s⁻¹

B3: CA14208 FIXa-specific MegaBody (Stripper2; C-term. 6xHis+EPEA) (other)
chain: QVQLVESGGGLVYKEETQSGLNNYARVVEKGQYDSLEIPAQVAASWESGRDDAAVFGFIDKEQLDKYVANGGKRSDWTVKFAENRSQDGTLLGYSLLQESVDQASYMYSDNHYLAEMATILGKPEEAKRYRQLAQQLADYINTCMFDPTTQFYYDVRIEDKPLANGCAGKPIVERGKGPEGWSPLFNGAATQANADAVVKVMLDPKEFNTFVPLGTAALTNPAFGADIYWRGRVWVDQFWFGLKGMERYGYRDDALKLADTFFRHAKGLTADGPIQENYNPLTGAQQGAPNFSWSAAHLYMLYNDFFRKQASGGGSGGGGSGGGGSGNADNYKNVINRTGAPQYMKDYDYDDHQRFNPFFDLGAWHGHLLPDGPNTMGGFPGVALLTEEYINFMASNFDRLTVWQDGKKVDFTLEAYSIPGALVQKLTAKDVQVEMTLRFATPRTSLLETKITSNKPLDLVWDGELLEKLEAKEGKPLSDKTIAGEYPDYQRKISATRDGLKVTFGKVRATWDLLTSGESEYQVHKSLPVQTEINGNRFTSKAHINGSTTLYTTYSHLLTAQEVSKEQMQIRDILARPAFYLTASQQRWEEYLKKGLTNPDATPEQTRVAVKAIETLNGNWRSPGGAVKFNTVTPSVTGRWFSGNQTWPWDTWKQAFAMAHFNPDIAKENIRAVFSWQIQPGDSVRPQDVGFVPDLIAWNLSPERGGDGGNWNERNTKPSLAAWSVMEVYNVTQDKTWVAEMYPKLVAYHDWWLRNRDHNGNGVPEYGATRDKAHNTESGEMLFTVKKDSLRLSCATSGIGFSIYSMGWYRQAPGKERELVASIAGNEDKDYVESVKGRFTISRDYAKNTLYLEMSGLKFEDTAMYYCAAGLRRGVSLTPYYWGQGTQVTVSSHHHHHHEPEA
notes: Functionalized Nanobody derived from CA10309; also called MegaBody MbCA10309^YgjK; MbNbFIXa^cHopQ
- binding result [4]: binds

B4: CA11138 FIXa-specific Nb (C-term. 6xHis+EPEA) (VHH)
VHH: QVQLVESGGGLVQAGGSLRLSCAASERTASNYVMGWFRQAPGKEREFVAFISRTGGSTYYADSVKGRFTVSRDGAKNTVYLQMNTMKPEDTAVYYCAASLYIRNYYEGTNYAYWGQGTQVTVSS
notes: also called trapper1
- Kd [5]: 141 nM
- koff [5]: 0.0042 s⁻¹
- kon [5]: 34000 M⁻¹ s⁻¹

B5: CA10309 FIXa-specific Nb (Stripper2; C-term. 6xHis+EPEA) (VHH)
VHH: QVQLVESGGGLVQAGGSLRLSCATSGIGFSIYSMGWYRQAPGKERELVASIAGNEDKDYVESVKGRFTISRDYAKNTLYLEMSGLKFEDTAMYYCAAGLRRGVSLTPYYWGQGTQVTVSS
- Kd [5]: 21 nM
- koff [5]: 0.00073 s⁻¹
- kon [5]: 62000 M⁻¹ s⁻¹

B6: CA10304 FIXa-specific Nb (C-term. 6xHis+EPEA) (VHH)
VHH: QVQLVESGGGLVQAGGSLKLSCAASERTFSGTVMGWFRQPPGKEREFVGDISWSGSITDYADSVKGRFTISRDNAKNTMYLQMDSLKPEDTAVYYCAARVGGYSYIMSRSPADFGSWGQGTQVTVSS
notes: also called stripper1
- Kd [5]: 46 nM
- koff [5]: 0.0035 s⁻¹
- kon [5]: 88000 M⁻¹ s⁻¹

B7: CA10502 FIXa-specific Nb (Trapper2; C-term. 6xHis+EPEA) (VHH)
VHH: QVQLQESGGGLVQAGGSLRLSCAASGRTSRVYGVGWFRQAPGKERELVASISTSGSVTNVADSVKGRFTISRDNAKTTVYLQMNSLKPEDTALYYCAADPHGRPYGWGQGTQVTVSS
- Kd [5]: 74 nM
- koff [5]: 0.004 s⁻¹
- kon [5]: 70000 M⁻¹ s⁻¹

B8: CA15839 SMT3 Nanobody stripper (including C-terminal 6xHis+EPEA tag) (VHH)
VHH: QVQLVESGGGSAQTGGSLTLSCTASGSIVSMNSMGWFRRAPWKGREWLGDIGRDGRTSYASSVVGRFHISRDEAKNTVYLQMTRLKPEDAAMYYCAAVPFGDDDVGEWEYWGQGTQVTVSS
modifications: biotinylated for BLI
- Half time ratio (relative to wt) [6]: 1 fold
- KD ratio (relative to wt) [6]: 1 fold
- Kd [7]: 6.67 nM
- koff [7]: 0.00212 s⁻¹
- kon [7]: 318000 M⁻¹ s⁻¹

B9: CA16687 SMT3 Nanobody trapper (D50A) (including C-terminal 6xHis+EPEA tag) (VHH)
VHH: B8 VHH with D50A
modifications: biotinylated for BLI
- Half time ratio (relative to wt CA15839) [6]: 3.75 fold
- KD ratio (relative to wt CA15839) [6]: 4.34 fold
- Kd [7]: 29 nM
- koff [7]: 0.00797 s⁻¹
- kon [7]: 387000 M⁻¹ s⁻¹

B10: CA16964 mCherry Nanobody trapper (including C-terminal 6xHis+EPEA tag) (VHH)
VHH: QVQLVESGGGLVQAGGSLRLSCAASGRDFSFDGMGWFRQAPGKEREFVAAISWSGLRIGYSDSVKGRFTISRDNAETTVHLQMNSLKPEDTAVYYCATGSHATTKAQLYDYEYWGQGTQVTVSS
modifications: biotinylated for BLI
notes: also called Nb CA16964
- Half time ratio (relative to CA17302) (mCherry [8]): 4.27 fold
- KD ratio (relative to CA17302) (mCherry [8]): 3.86 fold
- Kd (mCherry [9]): 6.53 nM
- koff (mCherry [9]): 0.00436 s⁻¹
- kon (mCherry [9]): 694000 M⁻¹ s⁻¹
- binding result [10]: binds

B11: CA16239 GST Nanobody stripper (including C-terminal 6xHis+EPEA tag) (VHH)
VHH: QVQLVESGGGLVQAGGSLRLSCAASERTFSTYNMAWFRQAPGKEREFVAVISWNGGTTNSADSVKGRFTISRDNAKNTVYLQMNSLKPEDTAVYYCAARRVPYLSGTRYYTGEVDYDTWGQGTQVTVSS
modifications: biotinylated for BLI
- Half time ratio (relative to wt) [11]: 1 fold
- KD ratio (relative to wt) [11]: 1 fold
- Kd [12]: 4.86 nM
- koff [12]: 0.00309 s⁻¹
- kon [12]: 720000 M⁻¹ s⁻¹

B12: CA16240 GST Nanobody trapper (Y109A) (including C-terminal 6xHis+EPEA tag) (VHH)
VHH: B11 VHH with Y109A
modifications: biotinylated for BLI
notes: Y109A mutant of CA16239
- Half time ratio (relative to wt CA16239) [11]: 84 fold
- KD ratio (relative to wt CA16239) [11]: 136 fold
- Kd [12]: 659 nM
- koff [12]: 0.251 s⁻¹
- kon [12]: 512000 M⁻¹ s⁻¹

B13: CA16047 second GFP Nanobody stripper (including C-terminal 6xHis+EPEA tag) (VHH)
VHH: QVQLQESGGGLVQAGGSLRLSCAASGFTFDGYAIGWFRQAPGKEREGVSCISSSDGSTYYADSVKGRFTISSDNAKNTVYLQMNSLKPEDTAVYYCVAAWSPSTGCGSYYVQRPPGYDYWGQGTQVTVSS
modifications: biotinylated for BLI
notes: also called Nb CA16047
- Half time ratio (relative to wt) (GFP protein [13]): 1 fold
- KD ratio (relative to wt) (GFP protein [13]): 1 fold
- Kd (GFP protein [14]): 6.15 nM
- koff (GFP protein [14]): 0.00098 s⁻¹
- kon (GFP protein [14]): 234000 M⁻¹ s⁻¹

B14: CA16695 second GFP Nanobody trapper (Y119F) (including C-terminal 6xHis+EPEA tag) (VHH)
VHH: B13 VHH with Y119F
modifications: biotinylated for BLI
notes: Y119F mutant of CA16047; also called Nb CA16695
- Half time ratio (relative to wt CA16047) (GFP protein [13]): 1.78 fold
- KD ratio (relative to wt CA16047) (GFP protein [13]): 1.37 fold
- Kd (GFP protein [14]): 8.53 nM
- koff (GFP protein [14]): 0.00167 s⁻¹
- kon (GFP protein [14]): 200000 M⁻¹ s⁻¹

B15: CA17302 mCherry Nanobody stripper (including C-terminal 6xHis+EPEA tag) (VHH)
VHH: QVQLVESGGGLVQAGGSLRLSCVASGLPFSRYNMAWFRQAPGKEREFVADIDWSGDSTYDLDSVKGRFTISRDNAKNTVYLQMSSLLPEDTAVYYCAAHFKFILAQRIKWGDMDYWGKGTQVTVSS
modifications: biotinylated for BLI
notes: also called Nb CA17302
- Half time ratio (relative to CA17302) (mCherry [8]): 1 fold
- KD ratio (relative to CA17302) (mCherry [8]): 1 fold
- Half time ratio (relative to wt) (mCherry [15]): 1 fold
- KD ratio (relative to wt) (mCherry [15]): 1 fold
- Kd (mCherry [9]): 1.69 nM
- koff (mCherry [9]): 0.00102 s⁻¹
- kon (mCherry [9]): 619000 M⁻¹ s⁻¹
- Kd (mCherry [16]): 1.69 nM
- koff (mCherry [16]): 0.00102 s⁻¹
- kon (mCherry [16]): 619000 M⁻¹ s⁻¹
- binding result [17]: binds

B16: CA17341 mCherry Nanobody trapper (CA17302 mutant) (including C-terminal 6xHis+EPEA tag) (VHH)
VHH: B15 VHH with I103A
modifications: biotinylated for BLI
notes: also called Nb CA17341
- Half time ratio (relative to wt CA17302) (mCherry [15]): 2.26 fold
- KD ratio (relative to wt CA17302) (mCherry [15]): 2.4 fold
- Kd (mCherry [16]): 4.05 nM
- koff (mCherry [16]): 0.00231 s⁻¹
- kon (mCherry [16]): 601000 M⁻¹ s⁻¹
- binding result [18]: binds
